By stoichiometry N is commonly meant a count of units in the complex or per binding partner.

This data set concerns the molecule itself. Description: SEC + SEC-MALS. Background: In gel filtration, larger molecules generally elute earlier.

B1: ECM4 (extracellular mutant 4) of Saccharomyces cerevisiae (enzyme, S. cerevisiae, UniProt P36156 1-370, looked up)
chain: MSKQWASGTNGAFKRQVSSFRETISKQHPIYKPAKGRYWLYVSLACPWAHRTLITRALKGLTSVIGCSVVHWHLDEKGWRFLDMEKQLEDSEDFLEHWHDVAGGIRTAKEDSSKSFAEIKNDSQRFMVDATNEPHYGYKRISDLYYKSDPQYSARFTVPVLWDLETQTIVNNESSEIIRILNSSAFDEFVDDDHKKTDLVPAQLKTQIDDFNSWVYDSINNGVYKTGFAEKAEVYESEVNNVFEHLDKVEKILSDKYSKLKAKYGEEDRQKILGEFFTVGDQLTEADIRLYTTVIRFDPVYVQHFKCNFTSIRAGYPFIHLWVRNLYWNYDAFRYTTDFDHIKLHYTRSHTRINPLGITPLGPKPDIRPL
Consider B1, for which the “stoichiometry N” value was determined as 2.

B2: PcpF, S-glutathionyl-(chloro)hydroquinone reductase of Sphingobium chlorophenolicum ATCC 39723 (enzyme, UniProt Q8KN33 1-313, looked up)
chain: MGLLIDGVWRDAWYDTKSSGGRFVRKESQYRGGLDAGFRGEPGRYHLYAGFACPWAHRVLIMRALKGLEEMISVSMVNAYMGENGWTFLPGDDVVPDSINGADYLYQVYTAADPTYTGRVTIPILWDKVEKRILNNESSEIIRILNSAFDDVGALPGDYYPAEFRPEIDRINARVYETLNNGVYRSGFATTQEAYEEAFYPLFDTLDWLEEHLTGREWLVGDRLTEADIRLFPTLVRFDAIYHGHFKCNLRRIADYPNLSRLVGKLASHERVAPTINLRHAKAHYYGSHPSVNPTGIVPVGPAQPLPGLTLQS
For the protein B2, the “stoichiometry N” value came to 2.
